The test deals with endogenous Sec22b (rat) (rat (endogenous in PC12 and in rat hippocampal neurons)) (UniProt Q4KM74). The test can be described thus: proximity ligation.
Sequence of UniProt Q4KM74 (Q4KM74 whole entry): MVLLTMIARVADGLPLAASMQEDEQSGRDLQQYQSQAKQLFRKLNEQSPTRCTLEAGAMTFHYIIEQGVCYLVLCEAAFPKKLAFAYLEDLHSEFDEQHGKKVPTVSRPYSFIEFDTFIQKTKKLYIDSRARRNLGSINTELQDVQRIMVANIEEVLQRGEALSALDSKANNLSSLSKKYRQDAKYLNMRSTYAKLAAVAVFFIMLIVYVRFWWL

For “endogenous E-Syt2 (rat hippocampal neurons) (natural protein)”, the PLA signal normalized for the area, cell bodies was 2.85%; the PLA signal normalized for the area, growth cones is 7.64%; the PLA signal normalized for the area, neurites was determined as 5.53%.

The values above are taken from publication doi:10.1101/2019.12.24.886648.
